Measured values: PMC4980432, “Structure of a Complete ATP Synthase Dimer Reveals the Molecular Basis of Inner Mitochondrial Membrane Morphology” (Molecular Cell, 2016)
Each block holds one binder with its values, some of them ahead of it.

What was measured:
[1] = biological target: the molecule itself; assay: crystal structure; YLF1c10 subcomplex crystallised from the 1YLF1Fo complex without added nucleotides or inhibitors; 3.5 Å; molecular replacement with a model based on S. cerevisiae F1c10
[2] = biological target: T1, Y. lipolytica F1Fo-ATP synthase subunit a (Yarrowia lipolytica, UniProt Q36258 7-255); assay: cryo-EM structure; single-particle cryo-EM of the purified dimer 2YLF1Fo; C2 symmetry imposed; 7.8 Å overall, 6.9 Å for F1 and 6.2 Å for the Fo dimer after masking; fitted with the YLF1c10 X-ray structure and homology models of the peripheral stalk; conditions: both partners purified
T1 construct: subunit a of the mitochondrial F1Fo-ATP synthase, Yarrowia lipolytica; mitochondrially encoded; helices aH1 to aH6; source: endogenous, purified from Y. lipolytica mitochondria as part of 2YLF1Fo
T1 sequence (looked up): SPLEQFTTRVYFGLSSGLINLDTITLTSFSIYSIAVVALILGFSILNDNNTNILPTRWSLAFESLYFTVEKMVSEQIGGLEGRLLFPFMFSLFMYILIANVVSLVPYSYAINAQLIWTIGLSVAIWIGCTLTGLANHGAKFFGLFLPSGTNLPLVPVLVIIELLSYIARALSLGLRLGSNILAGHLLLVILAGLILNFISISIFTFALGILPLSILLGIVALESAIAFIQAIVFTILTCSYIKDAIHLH

[3] = biological target: the molecule itself; assay: as above
[4] = biological target: T2, Y. lipolytica F1Fo-ATP synthase subunit α (Yarrowia lipolytica, UniProt Q6C326 25-536); assay: as above; conditions: both partners purified
T2 construct: subunit α of the mitochondrial F1Fo-ATP synthase, Yarrowia lipolytica; three copies in each F1 head, in the states αE, αTP and αDP; also called αE; αTP; source: endogenous, purified from Y. lipolytica mitochondria as part of 2YLF1Fo, 1YLF1Fo and the YLF1c10 subcomplex

[5] = biological target: T3, e/g heterodimer of the Y. lipolytica F1Fo-ATP synthase (subunits e and g) (Yarrowia lipolytica, UniProt B5FVG3 1-90; B5FVB8 1-138); assay: as above; conditions: both partners purified
T3 construct: subunit e of the mitochondrial F1Fo-ATP synthase, Yarrowia lipolytica; predicted N-terminal trans-membrane helix with a GxxxG motif and a hydrophilic C terminus; subunit g of the mitochondrial F1Fo-ATP synthase, Yarrowia lipolytica; N-terminal matrix domain and predicted C-terminal trans-membrane helix with a GxxxG motif; the two subunits are not resolved from each other in the 6.2 Å map; also …
T3 sequence (looked up) 1: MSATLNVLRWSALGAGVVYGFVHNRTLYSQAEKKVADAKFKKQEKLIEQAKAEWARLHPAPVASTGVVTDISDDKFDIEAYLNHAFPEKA
T3 sequence (looked up) 2: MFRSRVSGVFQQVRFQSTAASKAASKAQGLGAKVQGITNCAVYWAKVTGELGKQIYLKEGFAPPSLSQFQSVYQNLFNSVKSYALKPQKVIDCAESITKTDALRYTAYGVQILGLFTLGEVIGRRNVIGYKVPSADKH

[6] = biological target: T2, Y. lipolytica F1Fo-ATP synthase subunit …; assay: crystal structure; YLF1c10 subcomplex crystallised from the 1YLF1Fo complex without added nucleotides or inhibitors; 3.5 Å; molecular replacement with a model based on S. cerevisiae F1c10; conditions: both partners purified

T2 sequence (Q6C326 25-536): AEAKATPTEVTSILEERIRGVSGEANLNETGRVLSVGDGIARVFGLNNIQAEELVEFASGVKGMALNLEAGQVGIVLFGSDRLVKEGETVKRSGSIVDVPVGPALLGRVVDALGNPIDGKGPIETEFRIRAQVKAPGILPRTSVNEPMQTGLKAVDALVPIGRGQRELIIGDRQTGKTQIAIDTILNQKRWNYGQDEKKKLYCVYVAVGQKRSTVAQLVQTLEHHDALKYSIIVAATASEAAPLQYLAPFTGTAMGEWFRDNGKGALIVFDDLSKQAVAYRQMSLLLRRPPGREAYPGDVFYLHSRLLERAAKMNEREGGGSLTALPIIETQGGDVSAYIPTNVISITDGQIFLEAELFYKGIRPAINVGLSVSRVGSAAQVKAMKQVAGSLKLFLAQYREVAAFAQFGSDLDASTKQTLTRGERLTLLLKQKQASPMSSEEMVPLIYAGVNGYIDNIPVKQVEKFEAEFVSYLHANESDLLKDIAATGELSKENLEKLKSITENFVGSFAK

B1: Y. lipolytica F1Fo-ATP synthase subunit c (natural protein, Yarrowia lipolytica, UniProt Q37695 1-76, looked up)
chain: MQLVLAGKYIGAGLASIGLVGAGIGIAIVFAALINGVSRNPALKGQLFTYSILGFALSEATGLFALMIAFLLLYAV
notes: subunit c (subunit 9) of the mitochondrial F1Fo-ATP synthase, Yarrowia lipolytica; mitochondrially encoded; ten copies form the rotor ring; also called c subunit; c-ring; source: endogenous, purified from Y. lipolytica mitochondria as part of 2YLF1Fo and the YLF1c10 subcomplex
stoichiometry N [1]: 10
binding result [2]: binds

B2: Y. lipolytica F1Fo-ATP synthase subunit f (natural protein, Yarrowia lipolytica, UniProt Q6C9E6 7-103, looked up)
chain: LSTLIPPKVASPATLHGAPNAKRMADVVSFYKALPQGAAPALPKTANPFKLYYRKYFHPKSGKASGAPLLHLILGIFLFGYISDYQFHLKHHKNGAH
notes: subunit f of the mitochondrial F1Fo-ATP synthase, Yarrowia lipolytica; nuclear-encoded; in yeast a 100-residue subunit with a hydrophilic N-terminal domain and a predicted C-terminal trans-membrane helix; source: endogenous, purified from Y. lipolytica mitochondria as part of 2YLF1Fo
binding result [3]: binds

B3: Y. lipolytica F1Fo-ATP synthase subunit d (natural protein, Yarrowia lipolytica, UniProt Q6CFH9 1-176, looked up)
chain: MSVAAARSSAVKVDWGKIVSSLGLTGATVSSLQAFRKRHEEAKKNAYELQNQPTTVDFAHYRKVLKNQKVVDEIEQHFKSFKPVTYDVSKQLKTIDAFEAKAIEDAKATEGKVNQEIGDLQKTLENIESARPFDQLSVDDVFKARPDLEKKIEEMVKKGRWSVPGYNEKFGSVVLM
notes: peripheral stalk subunit d of the mitochondrial F1Fo-ATP synthase, Yarrowia lipolytica; also called d subunit; source: endogenous, purified from Y. lipolytica mitochondria as part of 2YLF1Fo
binding result [4]: binds

Results, then the binder that gave them:

binding result [4]: binds
B4: Y. lipolytica F1Fo-ATP synthase subunit h (natural protein, Yarrowia lipolytica, UniProt Q6C2V6 20-108, looked up)
chain: NLISEAYTREVRAFKAPKLSAKDAEGQVKPWSAPSAPKPPVVEGADAAELQAYAEAPVDVEGQTNSKSASPQANDEDWLAFEEEEGVAV
notes: peripheral stalk subunit h of the mitochondrial F1Fo-ATP synthase, Yarrowia lipolytica; also called equivalent of bovine F6; source: endogenous, purified from Y. lipolytica mitochondria as part of 2YLF1Fo

binding result [4]: binds
B5: Y. lipolytica F1Fo-ATP synthase subunit OSCP (natural protein, Yarrowia lipolytica, UniProt Q6C9B1 25-214, looked up)
chain: APVKVPVQLFGLDGTYATALYTAAAKESDLSKTEGSLAKLRDVFAQQPEVAQIVSNPTLSHEDKQTVVNVLSQAVGGDKTLTNFLTVISDNNRLALIPGIIEKFETLVNASKGLVEATVTSASELDKKTVNRIQAAIAGSSFVGEGELKLNLKVNPDILGGLIVEVAERTVDVSVASKIARLNHVLSEPI
notes: peripheral stalk subunit OSCP of the mitochondrial F1Fo-ATP synthase, Yarrowia lipolytica; source: endogenous, purified from Y. lipolytica mitochondria as part of 2YLF1Fo

binding result [4]: binds
binding result [5]: binds
B6: Y. lipolytica F1Fo-ATP synthase subunit b (natural protein, Yarrowia lipolytica, UniProt Q6C105 15-217, looked up)
chain: SNQVDPKVKATSILDSIPGNNVLSKTGVLATGVLGSIYAISNELYIVNDESIVLGVFAAFVVVVAKLGGPGYTSWADGYIENMRNILNTTRDKHTDAVKERIGDVSKLKDVVKTTQDLFAVSKDTVKLEAEVFETKQQVVLAAEAKSVLDSWVRYENSVRQREQKLLTETVISKIEKDLKDPKFQQKILQQSVEDIEKLFAKA
notes: subunit b of the mitochondrial F1Fo-ATP synthase, Yarrowia lipolytica; two trans-membrane helices at its N terminus; also called peripheral stalk subunit b; source: endogenous, purified from Y. lipolytica mitochondria as part of 2YLF1Fo

binding result [6]: binds
B7: Y. lipolytica F1Fo-ATP synthase subunit γ (natural protein, Yarrowia lipolytica, UniProt Q6C338 22-293, looked up)
chain: ATLREIEMRLKSIKNIEKITNTMKIVASTKLGKAQRAMATSKVYNEASEKVFENSETAVPENIEKRLWVVVSSDKGLCGSIHSQLARTVRRKLLDFESGEKLIDIVAVGEKIKAQLGRSNPEQMRLSFGGTGKEAPTFEEAAHIADEILALDTQYDDIEIVYNKVLSGISFEPIMKESYSAKAIEDAPKFGQYELEDDVVKNLADFSLANTIYAAMAEGHAAEISARRNAMDNASKNASDMINKYSILYNRTRQAVITNELVDIITGASSLE
notes: subunit γ of the mitochondrial F1Fo-ATP synthase, Yarrowia lipolytica; also called central γ subunit; source: endogenous, purified from Y. lipolytica mitochondria as part of the YLF1c10 subcomplex (from 1YLF1Fo)

binding result [2]: binds
B8: Y. lipolytica F1Fo-ATP synthase subunit 8 (natural protein, Yarrowia lipolytica, UniProt Q36257 1-48, looked up)
chain: MPQLVPFYFTNQIFYGFASLSVIVYLFSIYILPHYLEIYVTRIFITKT
notes: subunit 8 of the mitochondrial F1Fo-ATP synthase, Yarrowia lipolytica; 48 residues; N-terminal MPQL motif, trans-membrane helix ended by Pro33; mitochondrially encoded; also called A6L in human; source: endogenous, purified from Y. lipolytica mitochondria as part of 2YLF1Fo
